Columns and labels:
HLA-A*1101 [1] = target: HLA-A*1101 (human); test: competitive inhibition of 125I-labeled probe peptide binding to purified HLA-A*1101, gel filtration
[2] = target: T1, HLA-A*1101 (purified HLA class I molecule) (human); test: competition vs 125I standard peptide, purified HLA
T1 construct: Purified MHC molecule

[3] = target: HLA-A*0301 (purified HLA class I molecule) (human); test: competition vs 125I standard peptide, purified HLA
HLA-A*2401 = target: T2, HLA-A*2401 (human); test: inhibition of 125I-labelled standard peptide binding to purified HLA, gel filtration
T2 construct: Purified HLA class I molecule (kind: MHC class I); also called A*2402

[4] = target: T3, HLA-A*0301 (purified HLA class I molecule) (human); test: inhibition of 125I probe peptide binding to purified HLA; ratio to standard peptide
T3 construct: also called A3

[5] = target: HLA-A*1101 (purified HLA class I molecule) (human); test: as above
HLA-A*1101 [6] = target: HLA-A*1101 (human); test: inhibition of 125I-labelled probe peptide binding to purified HLA-A*1101, gel filtration; relative to standard peptide 940.06

B1: HER2/neu peptide, position 962, 9 amino acids (peptide)
peptide: DSECRPRFR
relative binding ratio (HLA-A*1101 [1]): -0.0002 ratio (IC50 of standard peptide / IC50 of test peptide)

B2: HER2/neu peptide, position 681, 8 amino acids (peptide)
peptide: KIRKYTMR
relative binding ratio [2]: 0.0004 ratio (IC50 standard/IC50 test) | relative binding ratio [3]: 0.001 ratio (IC50 standard/IC50 test)

B3: HER2/neu peptide, position 841, 9 amino acids (peptide)
peptide: LVHRDLAAR
relative binding ratio [2]: 0.0014 ratio (IC50 standard/IC50 test) | relative binding ratio [3]: 0.004 ratio (IC50 standard/IC50 test)

B4: HER2/neu peptide, position 342, 9 amino acids (peptide)
peptide: CYGLGMEHL
notes: also called Her2/neu.342 (9-mer)
relative binding ratio (HLA-A*2401): 0.018 ratio (IC50 of standard peptide / IC50 of test peptide)

B5: HER2/neu peptide, position 1144, 10 amino acids (peptide)
peptide: DVRPQPPSPR
notes: also called Her2/neu.1144 (10-mer)
relative binding ratio [4]: 0.0003 ratio (IC50 standard / IC50 test) | relative binding ratio [5]: 0.0001 ratio (IC50 standard / IC50 test)

B6: HER2/neu peptide, position 674, 10 amino acids (peptide)
peptide: LIKRRQQKIR
relative binding ratio [2]: 0.0001 ratio (IC50 standard/IC50 test) | relative binding ratio [3]: 0.0002 ratio (IC50 standard/IC50 test)

B7: HER2/neu peptide, position 826, 11 amino acids (peptide)
peptide: CMQIAKGMSYL
notes: also called Her2/neu.826 (11-mer)
relative binding ratio (HLA-A*2401): -0.0003 ratio (IC50 of standard peptide / IC50 of test peptide)

B8: HER2/neu peptide, position 475, 11 amino acids (peptide)
peptide: CFVHTVPWDQL
notes: also called Her2/neu.475 (11-mer)
relative binding ratio (HLA-A*2401): 0.0003 ratio (IC50 of standard peptide / IC50 of test peptide)

B9: HER2/neu peptide, position 997, 9 amino acids (peptide)
peptide: ASPLDSTFY
relative binding ratio (HLA-A*1101 [1]): 0.0004 ratio (IC50 of standard peptide / IC50 of test peptide)

B10: HER2/neu peptide, position 181, 10 amino acids (peptide)
peptide: LTLIDTNRSR
relative binding ratio [2]: 0.0005 ratio (IC50 standard/IC50 test) | relative binding ratio [3]: 0.0002 ratio (IC50 standard/IC50 test)

B11: HER2/neu peptide, position 26, 9 amino acids (peptide)
peptide: CTGTDMKLR
notes: also called Her2/neu.26 (9-mer)
relative binding ratio [4]: 0.0002 ratio (IC50 standard / IC50 test) | relative binding ratio [5]: 0.0005 ratio (IC50 standard / IC50 test)

B12: HER2/neu peptide, position 730, 10 amino acids (peptide)
peptide: AFGTVYKGIW
notes: also called Her2/neu.730 (10-mer)
relative binding ratio (HLA-A*2401): 0.001 ratio (IC50 of standard peptide / IC50 of test peptide)

B13: HER2/neu peptide, position 162, 11 amino acids (peptide)
peptide: CYQDTILWKDI
notes: also called Her2/neu.162 (11-mer)
relative binding ratio (HLA-A*2401): 0.0016 ratio (IC50 of standard peptide / IC50 of test peptide)

B14: HER2/neu A11 motif peptide, position 181, 10 amino acids (peptide)
peptide: LTLIDTNRSR
notes: also called HER2/neu 181-190
relative binding ratio (HLA-A*1101 [6]): 0.0005 ratio (IC50 of standard peptide / IC50 of test peptide)

B15: HER2/neu peptide, position 607, 9 amino acids (peptide)
peptide: DLSYMPIWK
relative binding ratio (HLA-A*1101 [1]): 0.01 ratio (IC50 of standard peptide / IC50 of test peptide)

B16: HER2/neu peptide, position 890, 9 amino acids (peptide)
peptide: ALESILRRR
relative binding ratio (HLA-A*1101 [1]): 0.0006 ratio (IC50 of standard peptide / IC50 of test peptide)

B17: HER2/neu peptide, position 705, 11 amino acids (peptide)
peptide: AMPNQAQMRIL
notes: also called Her2/neu.705 (11-mer)
relative binding ratio (HLA-A*2401): -0.0003 ratio (IC50 of standard peptide / IC50 of test peptide)

B18: HER2/neu peptide, position 705, 9 amino acids (peptide)
peptide: AMPNQAQMR
notes: T0001 prints N there
relative binding ratio (HLA-A*1101 [1]): 0.0006 ratio (IC50 of standard peptide / IC50 of test peptide)

B19: HER2/neu peptide, position 508, 10 amino acids (peptide)
peptide: GLACHQLCAR
notes: also called Her2/neu.508 (10-mer)
relative binding ratio [4]: 0.011 ratio (IC50 standard / IC50 test) | relative binding ratio [5]: 0.0001 ratio (IC50 standard / IC50 test)

B20: HER2/neu peptide, position 162, 8 amino acids (peptide)
peptide: CYQDTILW
notes: also called Her2/neu.162 (8-mer)
relative binding ratio (HLA-A*2401): 0.012 ratio (IC50 of standard peptide / IC50 of test peptide)

B21: HER2/neu peptide, position 447, 10 amino acids (peptide)
peptide: GLGISWLGLR
notes: also called Her2/neu.447 (10-mer)
relative binding ratio [4]: 0.0037 ratio (IC50 standard / IC50 test) | relative binding ratio [5]: 0.0001 ratio (IC50 standard / IC50 test)

B22: HER2/neu peptide, position 220, 9 amino acids (peptide)
peptide: CAGGCARCK
relative binding ratio (HLA-A*1101 [1]): -0.0002 ratio (IC50 of standard peptide / IC50 of test peptide)

B23: HER2/neu peptide, position 632, 9 amino acids (peptide)
peptide: HSCVDLDDK
relative binding ratio [2]: 0.0007 ratio (IC50 standard/IC50 test) | relative binding ratio [3]: -0.0002 ratio (IC50 standard/IC50 test)

B24: HER2/neu peptide, position 1173, 10 amino acids (peptide)
peptide: LSPGKNGVVK
relative binding ratio [2]: 0.0003 ratio (IC50 standard/IC50 test) | relative binding ratio [3]: -0.0002 ratio (IC50 standard/IC50 test)

B25: HER2/neu peptide, position 180, 9 amino acids (peptide)
peptide: ALTLIDTNR
relative binding ratio (HLA-A*1101 [1]): 0.0005 ratio (IC50 of standard peptide / IC50 of test peptide)

B26: HER2/neu peptide, position 805, 10 amino acids (peptide)
peptide: CLLDHVRENR
relative binding ratio (HLA-A*1101 [1]): 0.0001 ratio (IC50 of standard peptide / IC50 of test peptide)

B27: HER2/neu peptide, position 889, 10 amino acids (peptide)
peptide: MALESILRRR
relative binding ratio [2]: 0.0003 ratio (IC50 standard/IC50 test) | relative binding ratio [3]: 0.0011 ratio (IC50 standard/IC50 test)

B28: HER2/neu peptide, position 863, 10 amino acids (peptide)
peptide: DFGLARLLDI
notes: also called Her2/neu.863 (10-mer)
relative binding ratio (HLA-A*2401): 0.0002 ratio (IC50 of standard peptide / IC50 of test peptide)

B29: HER2/neu peptide, position 845, 10 amino acids (peptide)
peptide: DLAARNVLVK
relative binding ratio (HLA-A*1101 [1]): 0.0007 ratio (IC50 of standard peptide / IC50 of test peptide)

B30: HER2/neu peptide, position 1212, 10 amino acids (peptide)
peptide: AFSPAFDNLY
relative binding ratio (HLA-A*1101 [1]): 0.0003 ratio (IC50 of standard peptide / IC50 of test peptide)

B31: HER2/neu peptide, position 878, 10 amino acids (peptide)
peptide: HADGGKVPIK
relative binding ratio [2]: 0.0008 ratio (IC50 standard/IC50 test) | relative binding ratio [3]: 0.0003 ratio (IC50 standard/IC50 test)

B32: HER2/neu peptide, position 295, 9 amino acids (peptide)
peptide: CVTACPYNY
relative binding ratio (HLA-A*1101 [1]): 0.0004 ratio (IC50 of standard peptide / IC50 of test peptide)

— patent US20040018971A1 (published 2004)
